Test [1] has as its target human PD-L1 (PD-1/PD-L1 blockade Bioassay, Promega) (human, UniProt Q9NZQ7 19-290, limits assumed). The test can be described thus: cell-based or functional assay.
Test [2] has as its target T1, human serum albumin (human, UniProt P02768 25-609).
T1 construct: mature; Bought protein; biotinylated in the Octet and HTRF assays; also called HSA; HuSA
The test can be described thus: binding ELISA on coated HSA, pH 7.4. On the procedure:
After saturation with 5% PBS Casein pH 7.5, plates were washed and a dilution of AFFIMER® polypeptides or controls were incubated for 90 minutes. Plates were then washed, and a biotinylated polyclonal antibody anti-cystatin A (R&D Systems) was added for 1 hour. Plates were washed and AFFIMER® polypeptides were detected using streptavidin-HRP. After a last washing step, TMB was added for the development of the experiment and the plates were read at 450 nm.

For test [3], the target named is T1, human serum albumin. Kind of test: SPR (Biacore), immobilised HSA, Affimer analyte. The protocol:
Affinities for mouse, human, and cynomolgus serum were also measured at pH 7.4 for four (4) AFFIMER® binders using surface plasmon resonance (SPR) (FIG. 5, Table 5). […] A concentration titration of AFFIMER® monomers was run as analyte at a flow rate of 30 μl/min or 60 μl/min. Fc2-1, Fc3-1 and Fc4-1 kinetic data was blank subtracted and fit to a 1:1 Langmuir binding model (BIAcore Evalution software; GE) to calculate KD values. […]

Test [4] deals with T2, human PD-L1-Fc (R&D Systems) chimeric protein (human, UniProt Q9NZQ7 19-239).
T2 construct: Bought reagent; also called rhPD-L1-Fc; huPD-L1; Fc part of the bought chimera not given, not described
T2 sequence (Q9NZQ7 19-239, change not shown): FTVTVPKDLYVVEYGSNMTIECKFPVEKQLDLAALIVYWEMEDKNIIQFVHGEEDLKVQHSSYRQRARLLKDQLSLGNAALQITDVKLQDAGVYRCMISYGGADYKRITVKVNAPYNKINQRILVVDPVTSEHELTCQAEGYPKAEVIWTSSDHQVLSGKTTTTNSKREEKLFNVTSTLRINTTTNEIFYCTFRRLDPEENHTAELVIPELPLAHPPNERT
The test can be described thus: SPR (Biacore), immobilised rhPD-L1-Fc, Affimer analyte. The protocol:
ILF dimer production from E. coli was performed as described in Example 3. Briefly, protein was purified using three stages: affinity capture, IEX, and preparative SEC. […] To analyze PD-L1-Fc binding kinetics, a Biacore T200 kinetic analysis was performed using running buffer HBS-EP+ and series S sensor CM5 (GE Healthcare) chip Fc2 immobilized with PD-L1-Fc (R&D Systems) in 10 mM sodium acetate pH 4.0 using amine coupling reagents (GE Healthcare). The concentration titration of ILF AFFIMER® polypeptides was run as analyte at a flow rate of 30 μl/min. […] with 3 mM NaOH (GE healthcare) for 20 seconds at 20 μl/min flow rate. The Fc2-1 data blank was subtracted and fit to a 1:1 Langmuir binding model (Biacore evaluation software; GE) to calculate an apparent KD value.
ILF production in E. coli was performed as described in Example 3 using protein purified using affinity capture, IEX, and preparative SEC. Protein purity was assessed using SDS-PAGE and SEC-HPLC.

Test [5] has as its target T2, human PD-L1-Fc (R&D Systems) chimeric …. Kind of test: Biacore single cycle kinetics on human PD-L1 Fc.
Test [6] has the same target. Kind of test: binding ELISA on coated human PD-L1-Fc (table on the sheet is headed 'IC50 (nM)'; the text calls these values EC50). The protocol:
Briefly, human PD-L1-Fc (R&D Systems) chimeric protein was coated on 96 well plates at […] in carbonate buffer. After saturation with 5% casein/PBS buffer, the plates were washed and a dilution of AFFIMER® polypeptides or controls were incubated for 90 minutes. Plates were then washed and a biotinylated polyclonal antibody anti-cystatin A (R&D Systems) was added for 1 hour. Plates were washed and AFFIMER® polypeptides were detected using streptavidin-HRP. After a last washing step, TMB was added for the development of the experiment and plates were read at 450 nm.

Test [7] has the same target. Kind of test: binding ELISA on coated human PD-L1 Fc ('Anti-PD-L1 ELISA'). The protocol:
Briefly, human PD-L1 Fc (R&D Systems) chimeric protein was coated onto 96 well plates at 0.5 μg/mL in carbonate buffer. After saturation with 5% casein/PBS buffer, plates were washed and a dilution of conjugated AFFIMER® polypeptide or unconjugated control were incubated for 90 minutes. Plates were then washed, a biotinylated polyclonal anti-cystatin A antibody (R&D Systems) added, and the plates incubated for 1 hour. Plates were washed and bound AFFIMER® polypeptide was detected using streptavidin-HRP. After a last washing step, TMB was added and the plate was read at 450 nm.

Seven molecules from patent publication US20230272011A1 (AVACTA LIFE SCIENCES, published 2023) can be followed below.

Sequence of human PD-L1 (PD-1/PD-L1 blockade Bioassay, Promega) (Q9NZQ7 19-290 limits assumed): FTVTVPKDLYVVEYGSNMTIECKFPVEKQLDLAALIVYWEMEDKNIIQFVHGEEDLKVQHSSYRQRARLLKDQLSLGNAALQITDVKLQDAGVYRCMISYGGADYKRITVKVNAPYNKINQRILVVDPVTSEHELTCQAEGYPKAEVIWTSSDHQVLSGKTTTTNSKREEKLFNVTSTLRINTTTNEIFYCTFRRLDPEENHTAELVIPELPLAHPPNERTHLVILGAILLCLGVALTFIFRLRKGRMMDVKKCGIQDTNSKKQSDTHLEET

B1: AVA04-251 XT14 (designed binder)
chain: MIPRGLSEAKPATPEIQEIVDKVKPQLEEKTNETYGKLEAVQYKTQVLAREGRQDWVLSTNYYIKVRAGDNKYMHLKVFNGPWVPFPHQQLADRVLTGYQVDKNKDDELTGFAEAAAKEAAAKEAAAKEAAAKEAAAKEAAAKMIPRGLSEAKPATPEIQEIVDKVKPQLEEKTNETYGKLEAVQYKTQVLAREGRQDWVLSTNYYIKVRAGDNKYMHLKVFNGPWVPFPHQQLADRVLTGYQVDKNKDDELTGFAEAAAKEAAAKEAAAKEAAAKEAAAKEAAAKMIPRGLSEAKPATPEIQEIVDKVKPQLEEKTNETYGKLEAVQYKTQVLANFFQRRWPGSTNYYIKVRAGDNKYMHLKVFNGPWKFRNTDRGADRVLTGYQVDKNKDDELTGFHHHHHH
For B1, the “IC50 as headed on the sheet (EC50); PD-1/PD-L1 blockade Bioassay (Promega), fold change relative to assay buffer” value (“IC50 … fold change relative to assay buffer” below) in test [1] amounted to 176 nM. The concentration giving a half-maximal response (EC50) in test [2] is 0.062 nM; in test [6], 0.033 nM. The dissociation constant (Kd) in test [3] was 8.75 nM; in test [4], 0.504 nM; in test [5], 0.307 nM. The values for the dissociation rate constant (koff) in test [3], in test [4] and in test [5] were 0.00282 s⁻¹, 0.00042 s⁻¹ and 0.000277 s⁻¹, respectively. The kon turned out to be 322000 M⁻¹ s⁻¹ in test [3], 834000 M⁻¹ s⁻¹ in test [4] and 903000 M⁻¹ s⁻¹ in test [5].

B2: AVA04-251 BH (designed binder)
chain: MIPRGLSEAKPATPEIQEIVDKVKPQLEEKTNETYGKLEAVQYKTQVLAREGRQDWVLSTNYYIKVRAGDNKYMHLKVFNGPWVPFPHQQLADRVLTGYQVDKNKDDELTGFAEAAAKEAAAKEAAAKEAAAKEAAAKEAAAKMIPRGLSEAKPATPEIQEIVDKVKPQLEEKTNETYGKLEAVQYKTQVLAREGRQDWVLSTNYYIKVRAGDNKYMHLKVFNGPWVPFPHQQLADRVLTGYQVDKNKDDELTGFHHHHHH
notes: also called anti-PD-L1 parental ILF dimer molecule
In the case of B2, in test [1], the “IC50 … fold change relative to assay buffer” value is 893 nM. In test [4], this molecule gave a Kd of 1.71 nM, a koff of 0.00129 s⁻¹ and a kon of 752000 M⁻¹ s⁻¹. Further, the midpoint of the response in test [6], the EC50, lay at 0.03 nM.

B3: AVA04-251 XT14-800 (designed binder)
chain: MIPRGLSEAKPATPEIQEIVDKVKPQLEEKTNETYGKLEAVQYKTQVLAREGRQDWVLSTNYYIKVRAGDNKYMHLKVFNGPWVPFPHQQLADRVLTGYQVDKNKDDELTGFAEAAAKEAAAKEAAAKEAAAKEAAAKEAAAKMIPRGLSEAKPATPEIQEIVDKVKPQLEEKTNETYGKLEAVQYKTQVLAREGRQDWVLSTNYYIKVRAGDNKYMHLKVFNGPWVPFPHQQLADRVLTGYQVDKNKDDELTGFAEAAAKEAAAKEAAAKEAAAKEAAAKEAAAKMIPRGLSEAKPATPEIQEIVDKVKPQLEEKTNETYGKLEAVQYKTQVLANFFQRRWPGSTNYYIKVRAGDNKYMHLKVFNGPWKFRNTDRGADRVLTGYQVDKNKDDELTGFC
modifications: IRDye 800CW conjugated with maleimide chemistry (C-terminal cysteine construct)
With B3, the “EC50 (read off the curve)” value in test [7] is approximately 0.02 nM.

B4: AVA04-251 XT14-Cys (designed binder)
single chain: B3 chain
Consider B4, for which, in test [7], the “EC50 (read off the curve)” value is approximately 0.02 nM.

B5: AVA04-251 BH-800 (designed binder)
chain: MIPRGLSEAKPATPEIQEIVDKVKPQLEEKTNETYGKLEAVQYKTQVLAREGRQDWVLSTNYYIKVRAGDNKYMHLKVFNGPWVPFPHQQLADRVLTGYQVDKNKDDELTGFAEAAAKEAAAKEAAAKEAAAKEAAAKEAAAKMIPRGLSEAKPATPEIQEIVDKVKPQLEEKTNETYGKLEAVQYKTQVLAREGRQDWVLSTNYYIKVRAGDNKYMHLKVFNGPWVPFPHQQLADRVLTGYQVDKNKDDELTGFC
modifications: IRDye 800CW conjugated with maleimide chemistry (C-terminal cysteine construct)
notes: E. coli product
Regarding B5, in test [7], the “EC50 (read off the curve)” value is approximately 0.04 nM.

B6: AVA04-251 BH-Cys (designed binder)
single chain: B5 chain
B6: the half-maximal effective concentration (EC50 (read off the curve)) in test [7] was approximately 0.04 nM.

B7: AVA04-251 XT15 (designed binder)
chain: MIPRGLSEAKPATPEIQEIVDKVKPQLEEKTNETYGKLEAVQYKTQVLAREGRQDWVLSTNYYIKVRAGDNKYMHLKVFNGPWVPFPHQQLADRVLTGYQVDKNKDDELTGFAEAAAKEAAAKEAAAKEAAAKEAAAKEAAAKMIPRGLSEAKPATPEIQEIVDKVKPQLEEKTNETYGKLEAVQYKTQVLANFFQRRWPGSTNYYIKVRAGDNKYMHLKVFNGPWKFRNTDRGADRVLTGYQVDKNKDDELTGFAEAAAKEAAAKEAAAKEAAAKEAAAKEAAAKMIPRGLSEAKPATPEIQEIVDKVKPQLEEKTNETYGKLEAVQYKTQVLAREGRQDWVLSTNYYIKVRAGDNKYMHLKVFNGPWVPFPHQQLADRVLTGYQVDKNKDDELTGFHHHHHH
In the case of B7, in test [1], the “IC50 … fold change relative to assay buffer” value amounted to 434 nM. Further, the concentration giving a half-maximal response (EC50) in test [2] stood at 0.039 nM. In addition, in test [3], binding was characterised by a dissociation constant (Kd) of 5.2 nM, the koff came out at 0.0029 s⁻¹ and the kon was 557000 M⁻¹ s⁻¹. In test [4], this molecule had a Kd of 0.704 nM, an off-rate constant (koff) of 0.000607 s⁻¹ and a kon of 863000 M⁻¹ s⁻¹. For the same molecule, in test [6], the half-maximal effective concentration (EC50) is 0.064 nM.
